This test concerns the target T1, type IV collagen α3-SmBiT (fusion protein having SmBiT at the C-terminal of wild-type type IV collagen α3(IV) … (Homo sapiens (Human), UniProt Q01955 43-1670)).
T1 construct: also called α3 chain; COL4A3 in pFC36K SmBiT vector
As to the kind of experiment: split luciferase (NanoBiT) luminescence in culture supernatant of HEK293T cells co-expressing the domain-deleted α5 fusion with α3 and α4 chains.

One molecule from patent publication US20200172956A1 (NATIONAL UNIVERSITY CORPORATION KUMAMOTO UNIVERSITY, published 2020) can be followed below.

T1 sequence (Q01955 other isoform, or with tags, fused parts or gaps): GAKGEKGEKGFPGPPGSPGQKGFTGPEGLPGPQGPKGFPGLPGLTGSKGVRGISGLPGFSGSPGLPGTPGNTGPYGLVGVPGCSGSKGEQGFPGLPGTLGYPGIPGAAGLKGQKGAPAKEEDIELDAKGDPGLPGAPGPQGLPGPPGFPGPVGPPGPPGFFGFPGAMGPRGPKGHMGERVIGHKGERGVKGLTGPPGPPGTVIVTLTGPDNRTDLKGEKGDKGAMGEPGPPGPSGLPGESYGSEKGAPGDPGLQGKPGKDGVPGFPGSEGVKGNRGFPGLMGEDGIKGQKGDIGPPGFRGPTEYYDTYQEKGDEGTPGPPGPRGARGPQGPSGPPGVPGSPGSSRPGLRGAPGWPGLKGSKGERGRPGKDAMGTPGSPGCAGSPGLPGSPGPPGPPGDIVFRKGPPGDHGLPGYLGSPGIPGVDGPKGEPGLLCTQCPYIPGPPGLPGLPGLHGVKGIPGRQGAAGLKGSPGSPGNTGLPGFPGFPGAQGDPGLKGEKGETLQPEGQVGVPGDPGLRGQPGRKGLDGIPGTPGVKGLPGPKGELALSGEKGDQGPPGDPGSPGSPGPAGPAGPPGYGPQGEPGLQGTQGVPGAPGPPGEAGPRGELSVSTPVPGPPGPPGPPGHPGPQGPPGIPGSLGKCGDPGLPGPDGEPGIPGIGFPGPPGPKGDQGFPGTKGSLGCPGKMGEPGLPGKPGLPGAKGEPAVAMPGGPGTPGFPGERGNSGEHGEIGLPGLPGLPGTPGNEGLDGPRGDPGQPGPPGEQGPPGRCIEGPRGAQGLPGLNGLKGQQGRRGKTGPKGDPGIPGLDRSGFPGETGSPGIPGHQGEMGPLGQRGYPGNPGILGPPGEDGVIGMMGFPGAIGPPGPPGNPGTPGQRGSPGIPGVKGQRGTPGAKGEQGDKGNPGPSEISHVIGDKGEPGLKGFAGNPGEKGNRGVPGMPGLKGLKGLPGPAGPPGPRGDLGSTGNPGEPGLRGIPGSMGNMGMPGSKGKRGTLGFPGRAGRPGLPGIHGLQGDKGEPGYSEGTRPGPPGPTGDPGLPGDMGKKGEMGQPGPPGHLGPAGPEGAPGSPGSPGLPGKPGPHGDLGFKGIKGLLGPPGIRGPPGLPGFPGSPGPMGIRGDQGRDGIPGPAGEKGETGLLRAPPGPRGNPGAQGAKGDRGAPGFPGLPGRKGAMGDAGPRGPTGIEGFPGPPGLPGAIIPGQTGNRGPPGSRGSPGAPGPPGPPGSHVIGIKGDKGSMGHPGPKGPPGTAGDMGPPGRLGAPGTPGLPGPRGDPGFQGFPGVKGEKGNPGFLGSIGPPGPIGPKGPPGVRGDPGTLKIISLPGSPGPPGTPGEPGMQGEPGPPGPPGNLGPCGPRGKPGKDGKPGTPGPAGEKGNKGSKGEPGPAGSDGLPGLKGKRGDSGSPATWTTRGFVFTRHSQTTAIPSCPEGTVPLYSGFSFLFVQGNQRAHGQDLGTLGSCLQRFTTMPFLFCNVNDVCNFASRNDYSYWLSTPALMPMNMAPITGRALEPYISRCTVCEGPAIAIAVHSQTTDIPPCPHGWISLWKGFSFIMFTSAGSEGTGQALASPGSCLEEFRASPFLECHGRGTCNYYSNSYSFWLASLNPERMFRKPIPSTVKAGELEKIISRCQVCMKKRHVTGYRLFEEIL

B1: fusion protein having a split luciferase fragment at the C terminal of the NC1 domain of wild-type α5 chain (COL domain-deleted α5 chain) (other)
chain: GFLITRHSQTTDAPQCPQGTLQVYEGFSLLYVQGNKRAHGQDLGTAGSCLRRFSTMPFMFCNINNVCNFASRNDYSYWLSTPEPMPMSMQPLKGQSIQPFISRCAVCEAPAVVIAVHSQTIQIPHCPQGWDSLWIGYSFMMHTSAGAEGSGQALASPGSCLEEFRSAPFIECHGRGTCNYYANSYSFWLATVDVSDMFSKPQSETLKAGDLRTRISRCQVCMKRTMVFTLEDFVGDWEQTAAYNLDQVLEQGGVSSLLQNLAVSVTPIQRIVRSGENALKIDIHVIIPYEGLSADQMAQIEEVFKVVYPVDDHHFKVILPYGTLVIDGVTPNMLNYFGRPYEGIAVFDGKKITVTGTLWNGNKIIDERLITPDGSMLFRVTINS
notes: The residue range is converted from nucleotide numbers; also called 4COL (so in the source); probably ΔCOL
Consider B1, for which the binding result is listed as “no binding”.
